Reference: patent US5767233A, “Soluble cleavable substrates of the hepatitis C virus protease” (Schering Corporation, priority 1995, dated 1998)
Entries after “also recorded” stand apart in the source; their conditions may differ.

Legend:
Assay type in all cases: biochemical, Hepatitis C virus (HCV)
[1] = biological target: T1, NS3 protease (pBJ1022, NS3 catalytic domain) (Hepatitis C virus genotype 1a, UniProt P27958); assay: Enhancement by 4A peptides of NS3 cleavage in the in vitro translation assay
T1 construct: made in house; host or cells: E. coli M15 [pREP4]
Description: (§1) The plasmid pTS102 encoding the substrate 5A/5B was linearized by digestion with EcoR I and was transcribed using T7 RNA polymerase in vitro. The RNA was translated in presence of ^35 S methionine in rabbit reticulocyte lysates according to the manufacturer's (Promega protocol to produce HCV specific protein. In a 20 μl total reaction mixture containing 10 mM Tris, pH 7.5, 1 mM DTT, 0.5 mM EDTA, and 10% glycerol was placed 2 to 8 μl of ^35 S methionine-labeled translated 5A/5B substrate. The reaction was started with the addition of 10 μl of HCV NS3 protease in solubilization buffer (50 mM Na Phosphate, pH 7.8, 0.3M NaCl, 0.2% Tween 20, 10 mM DTT or BME, 10% glycerol), and incubated at 30° C. for the specified time. Reactions were stopped by adding an equal volume of 2X Laemmli sample buffer (Enprotech Inc.) and heating at 100° C. for 3 minutes. Reaction products were separated by SDS PAGE electrophoresis; gels were fixed, dried and subjected to autoradiography.
(§2) NS4A is able to enhance the NS3 serine protease activity at NS5A/5B site in mammalian cells that transiently coexpress NS3, NS4A, and the various HCV non-structural polyprotein containing downstream cleavage sites. We have studied this enhancement activity in a well defined cell-free biochemical assay, using the partially purified E. coli-expressed pBJ1022 as a source of NS3 protease, and synthetic peptides containing various truncations of NS4A. In our first experiment we used a crude cell lysate of pBJ1022 as the enzyme and NS4A synthetic peptide truncated 33 mer from amino acid 22 to amino acid 54, the carboxy-terminal in vitro translation cleavage reaction.
(§3) To further characterize NS4A enhancement activity additional truncations were made to the NS4A sequence. Truncated peptides were evaluated for their activity in the in vitro translation assay using Ni^2+ chelate column-purified pBJ1022 (NS3 catalytic domain).

[2] = system: NS3 protease (pBJ1022, NS3 catalytic domain); assay: as above; conditions: no NS3 protease present
Description: as §1, §2, §3

[3] = system: in vitro-translated 5A/5B substrate; assay: Analysis of refolded NS3 protease activity by in vitro translation assay; conditions: in the presence of 4A peptide (33 mer, 2 μM), 30° C., about one hour
From the text: (§4) To detect HCV NS3 protease activity in trans, we have expressed a 40 kD protein containing the NS5A/5B cleavage site in cell-free translation system and used that as the substrate for the enzyme. The substrate protein produces two protein products of apparent molecular weight 12.5 kD (NS 5A') and 27 kD (NS5B') upon cleavage by the HCV NS3 protease.
as §1, with “(Promega)” for “(Promega”, “protease (SEQ ID NO: 5) with an approximately equimolar amount (2 μM) of the carboxyterminal 33 mer cofactor NS4A (SEQ ID NO: 29)” for “protease”, “about one hour.” for “the specified time.”, “Reaction products were separated by SDS PAGE electrophoresis; gels were fixed, dried and subjected to autoradiography.” left out

[4] = system: in vitro translated 5A/5B substrate (40 kD protein containing the NS5A/5B cleavage site); assay: Analysis of NS3 protease activity by in vitro translation assay
From the text: as §4, §1

T1 sequence (P27958 1028-1209): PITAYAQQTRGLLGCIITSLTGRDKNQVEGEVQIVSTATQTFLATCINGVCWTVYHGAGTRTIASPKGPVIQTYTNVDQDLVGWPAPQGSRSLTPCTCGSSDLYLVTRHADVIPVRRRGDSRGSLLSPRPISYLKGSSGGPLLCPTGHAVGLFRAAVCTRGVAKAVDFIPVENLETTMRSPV

C-terminal 33 amino acid peptide of NS4A: NS4A synthetic peptide truncated 33 mer from amino acid 22 to amino acid 54 (strain HCV-BK) (CVVIVGRIVLSGKPAIIPDREVLYQEFDEMEEC)
enhancement of NS3 mediated cleavage activity ([1]; Ni2+ chelate column-purified pBJ1022 (NS3 catalytic domain)): able to enhance the NS3 mediated cleavage activity | enhancement of NS3 catalytic domain activity at the 5A/5B site ([1]; crude cell lysate of pBJ1022 as enzyme, 0.01 μM to 1.0 μM peptide, 30 minutes): able to enhance the activity of the NS3 catalytic domain in a dose dependent manner | cleavage of the substrate by the 4A peptide itself or with vector lysate [2]: did not cleave the substrate

B1: HisHIV183: histidine-tagged HCV NS3 protease without solubilizing motif, refolded from E. coli inclusion bodies (protein)
chain: MRGSHHHHHHGSHKARVLAEAMSHGTMAPITAYAQQTRGLLGCIITSLTGRDKNQVEGEVQIVSTATQTFLATCINGVCWTVYHGAGTRTIASPKGPVIQMYTNVDQDLVGWPAPQGSRSLTPCTCGSSDLYLVTRHADVIPVRRRGDSRGSLLSPRPISYLKGSSGGPLLCPAGHAVGLFRAAVCTRGVTKAVDFIPVENLETTMRSPV
trans-cleavage activity of the refolded protease on 5A/5B substrate [3]: active; also recorded: able to cleave 5A/5B substrate in a dose responsive manner

B2: pNB182Δ4A: E. coli-expressed fusion of NS3 catalytic domain (182aa)-G-NS4A(4-54) with hydrophilic tail, named by its plasmid (protein)
chain: MRGSHHHHHHTDPPITAYAQQTRGLLGCIITSLTGRDKNQVEGEVQIVSTATQTFLATCINGVCWTVYHGAGTRTIASPKGPVIQMYTNVDQDLVGWPAPQGSRSLTPCTCGSSDLYLVTRHADVIPVRRRGDSRGSLLSPRPISYLKGSSGGPLLCPAGHAVGLFRAAVCTRGVTKAVDFIPVENLETTMRSPGVLVGGVLAALAAYCLSTGCVVIVGRIVLSGKPAIIPDREVLYQEFDEMEECRKKKRRKLN
time at which 5A and 5B cleavage products began to appear ([4]; 30° C., soluble lysate at 1 μl per 20 μl reaction volume): 1 min | amount of lysate at which cleavage reached a maximum ([4]; 30 minutes incubation): 1 µL | least amount of cell lysate at which 5A and 5B cleavage products were detected ([4]; 30 minutes incubation): 0.125 µL | activity of crude soluble lysate compared with pBJ1022 lysate ([4]; crude soluble lysate, 30 minutes incubation): much more active | cleavage of translated 5A/5B substrate by imidazole-eluted fractions ([4]; fractions from Ni-NTA column purification): all able to cleave the translated 5A/5B Substrate

B3: pBJ1022: E. coli-expressed His-tagged NS3 protease catalytic domain with hydrophilic tail, named by its plasmid (protein)
chain: MRGSHHHHHHTDPPITAYAQQTRGLLGCIITSLTGRDKNQVEGEVQIVSTATQTFLATCINGVCWTVYHGAGTRTIASPKGPVIQMYTNVDQDLVGWPAPQGSRSLTPCTCGSSDLYLVTRHADVIPVRRRGDSRGSLLSPRPISYLKGSSGGPLLCPAGHAVGLFRAAVCTRGVTKAVDFIPVENLETTMRSPVRKKKRR
HCV protease activity of imidazole-eluted fractions ([4]; POROS Ni2+ chelate purification, NS4A amino acids 22 to 54 peptide added at 1 μM): active | cleavage activity by the protease alone, without the 4A peptide ([4]; crude cell lysate, incubation time of 30 minutes): relatively low cleavage activity | cleavage of 5A/5B substrate by crude soluble lysate ([4]; two hour assay at 30° C., lysate at 3, 6 and 10 μl, SDS PAGE): able to cleave 5A/5B substrate in a dose responsive manner
